In the supplement of paper PMC10567573:

B1: FLOT1 (parent)
chain: QMAKKAEAFQLYQEAAQLDMLLEK
B2: ANKRD44 (parent)
chain: FHCIETLVTTGANVNETDDWGRTA

Variants of: B1
Assay: protein stability index of a GFP-peptide fusion (GPS, HEK-293T) (PSI 1-6); higher = more stable
Conditions: c terminus: a fixed tail appended
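Also: lentivirally expressed fusions sorted by FACS into six bins by GFP to DsRed ratio, PSI derived from sequencing read proportions per bin multiplied by bin number.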

Protein stability index, by site and new letter:
L11: C 1.92, D 1.82, E 3.48, F 2.15, G 1.76, H 3.32, I 2.85, K 3.17, M 1.59, N 2.1, P 4.05, S 2.23, V 2.98, Y 1.81
Y12: A 4.22, C 3.06, D 4.96, E 4.41, F 1.67, G 4.56, H 2.98, I 2.62, K 4.88, L 2.03, N 4.47, P 5.08, R 4.75, S 4.55, T 4.17
Q13: C 2.46, D 4.08, E 2.92, F 1.52, G 3.57, H 3.6, I 2.49, K 2.62, L 3.2, M 3.5, N 3.82, P 3.87, R 2.81, S 1.8, T 2.85, Y 1.96
E14: A 1.3, C 2.61, D 2.13, G 2.58, H 1.94, I 3.03, K 1.83, L 1.97, N 2.5, P 3.12, Q 1.36, R 2.21, S 2.03, T 1.97, W 1.96, Y 2.71
A15: C 2.65, D 4.62, E 4.04, F 2.24, H 2.2, I 2.1, K 1.56, M 1.24, N 2.32, P 4.27, Q 1.44, R 2.92, S 2.49, T 2.76, V 2.33, W 2.68, Y 2.21
A16: D 3.24, E 3.98, G 4.14, H 3.3, I 1.44, K 3.59, L 2.63, M 2.79, N 2.45, P 4.27, Q 3.31, R 3.45, S 3.68, T 1.85, V 1.1, W 1.35, Y 1.93
Q17: A 1.47, C 1.71, D 3.81, E 1.89, F 2.6, I 1.72, K 1.65, L 1.58, M 1.02, P 3.95, R 2.46, S 1.88, T 1.19, V 1.14, W 4.61
L18: A 1.85, C 3.66, D 3.52, E 3.61, F 2.13, G 3.8, H 1.83, I 2.17, K 2.9, M 2.22, N 2.66, P 3.9, S 2.51, T 3.56, V 1.85, W 2.03, Y 1.46
D19: A 2.65, C 2.13, E 1.87, F 1.69, G 1.48, H 1.8, I 1.5, K 1.65, L 1.24, M 2.85, N 1.91, P 3.95, Q 1.83, R 1.53, S 1.29, T 2.66, V 3.13, W 1.34, Y 2.35
M20: A 2.75, C 1.97, D 4.03, E 3.76, F 2.25, G 3.94, H 2.94, I 3.46, K 2.55, L 1.85, N 2.47, P 4.52, Q 3.1, R 2.98, S 3.69, T 3.22, V 2.38, Y 2.08
L21: A 2.09, C 2.9, D 2.58, E 2.7, F 2.35, G 4.02, H 3.47, I 2, K 2.19, M 1.84, N 3.38, P 4.51, Q 1.75, R 3.19, S 3.46, T 2.97, V 2.35, W 1.69, Y 2.04
L22: A 1.32, C 2.42, D 2.54, E 1.61, F 2.23, G 3.76, H 2.48, I 1.72, K 3.07, M 2.02, N 2.03, P 3.9, Q 2.08, R 2.42, S 2.63, T 3.36, V 2.33, W 1.5, Y 1.5
E23: A 2.29, C 2.27, D 3.79, F 1.72, G 3.26, H 2.15, I 1.62, K 2.11, L 2.21, M 1.28, N 2.35, P 3.12, Q 1.75, R 1.39, S 2.53, T 1.51, V 1.98, W 1.98, Y 1.81
K24: A 2.53, C 2.28, D 3.76, E 4.03, F 2.2, G 2.89, H 2.67, I 3.41, L 2.08, M 2.23, N 2.83, P 3.37, Q 2.55, R 2.13, S 3.36, T 3.03, V 1.73, W 2.57, Y 2.35

Variants of: B2
Assay: as above
Conditions: c terminus: a fixed tail appended

Protein stability index of substitutions, site by site:
F1: A 4.69, C 2.18, D 4.81, E 4.77, G 4.25, H 4.18, I 3.13, K 4.18, L 3.31, M 4.54, N 4.5, P 4.56, Q 4.54, R 3.48, S 4.04, T 4.25, V 3.68, W 3.18, Y 2.07
H2: A 2.89, C 2.05, D 4.54, E 3.9, F 1.8, G 3.71, I 1.62, K 3.34, L 2.31, M 2.64, N 3.37, P 3.77, Q 3.27, R 3.46, S 3.36, T 3.08, V 1.74, W 1.68, Y 1.89
C3: A 1.79, D 3.62, E 3.96, F 2, G 2.89, H 2.79, I 1.78, K 3.8, L 2.05, M 2.31, N 2.21, P 3.36, Q 3.03, R 2.47, S 2.69, T 2.65, V 2.62, W 2.47, Y 2.19
I4: A 2.1, C 2.33, D 3.41, E 3.59, F 2.36, G 2.66, H 2.15, K 2.11, L 2.65, M 2.16, N 2.87, P 2.19, Q 2, R 2.61, S 2.69, T 2.87, V 2.44, W 3.86, Y 1.9
E5: A 2.31, C 2.02, D 2.23, G 2.11, H 2.76, I 2.98, K 2.14, L 4.06, N 2.03, P 2.43, Q 1.48, R 1.55, S 1.92, T 1.82, W 2.26, Y 3.36
T6: A 2.16, C 1.75
